Measurements taken from patent publication US20210009673A1, “METHODS FOR REGULATING BREAST CANCERS” (priority 2018, published 2021).

What was measured:
β-catenin = assay: tyrosine phosphorylation of β-catenin in PTN-stimulated U87MG cells; assay type: cell-based, human; conditions: control U87MG cells; 50 ng PTN/ml
Method: FIG. 1: FIG. 1 illustrates in (A) PTN stimulation of tyrosine phosphorylation of β-catenin in cells that express RPTPβ/ζ and ALK. COS7 cells transiently expressing ALK and RPTPβ/ζ were stimulated with 10 ng PTN/ml. Cell lysates were prepared and used to immunoprecipitate β-catenin. The immunoprecipitates were analyzed in Western blots probed with anti-phosphotyrosine antibodies. Lane 1, cells transfected with ALK that were not stimulated with PTN. Lane 2, cells transfected with ALK stimulated with PTN. Lane 3, cells transfected with empty vector not stimulated with PTN. Lane 4, cells transfected with empty vector stimulated with PTN. […] The immunoprecipitates were analyzed in Western blots probed with anti-phosphotyrosine antibodies. […] Cell lysates were used to immunoprecipitate β-catenin and the immunoprecipitates were analyzed in Western blots probed with anti-phospho-tyrosine antibodies and reprobed with anti-β-catenin antibodies. […] MCF-7 cells that stably express EGFR/RPTPβ/ζ not transfected with ALK were analyzed as above. […] Lysates of MCF-7 cells and lysates of MCF-7 cells stimulated with EGF were used to immunoprecipitate β-catenin and the immunoprecipitates were analyzed in Western blots probed with anti-phospho-tyrosine antibodies and separately with anti-β-catenin antibodies. […]

GSK3β = assay: phosphorylation of GSK3β serine 9 in PTN-stimulated HUVS cells; assay type: cell-based, human; conditions: 5, 10 and 20 minutes after PTN
Method: FIG. 11: FIG. 11 illustrates: human umbilical vein stromal cells not stimulated or stimulated with 50 ng/ml of PTN for 2, 5, 10 or 20 minutes were used to prepare cell lysates that were analyzed in Western blots probed with anti-phospho threonine 308 Akt (panel A), anti-phospho serine 473 Akt (panel B), anti-phospho-serine 9 GSK3β (panel C), anti-phospho-serine 33, 37 and […] β-catenin (panel D) or anti-actin antibodies (panel E). Akt was immunoprecipitated from those lysates using anti-Akt antibodies, incubated with a fusion peptide containing the 20 N-terminal amino acids of GSK3β and analyzed in Western-blots probed using anti-phospho-serine 9 GSK3β antibodies (panel F).
Lysates from HUVS cells stimulated with PTN as above were then analyzed in Western blots probed with anti-phosphoserine 9 GSK3β antibodies. GSK3β is known to be phosphorylated by Akt at serine 9 and to inactivate its catalytic activity. […]
The association of adaptor proteins that associate with specific phosphorylated sites in activated EGFR are responsible for the activation of phosphatidyl-inositol 3-kinase (PI3K). […] The cells were stimulated with PTN for 2, 5, 10, and 20 minutes, cell lysates were prepared, and the lysates were analyzed in Western blots probed with anti-phospho-Akt (Ser473), anti-phospho-GSKβ (Ser9), and anti-phospho-β-catenin (Thr42) antibodies. […]

B1: pleiotrophin (protein, UniProt P21246 33-168, looked up)
Pleiotrophin: GKKEKPEKKVKKSDCGEWQWSVCVPTSGDCGLGTREGTRTGAECKQTMKTQRCKIPCNWKKQFGAECKYQFQAWGECDLNTALKTRTGSLKRALHNAECQKTVTISKPCGKLTKPKPQAESKKKKKEGKKQEKMLD
B1 was tested, and the “phosphorylation of β-catenin” value (β-catenin) was “sharply increased” and the “GSK3β serine 9 phosphorylation” value (GSK3β) was “striking increase”.
